Measurements reported in the nanobody polyreactivity screen of Harvey et al. (2022).

assay: yeast display, Sf9 membrane polyspecificity reagent, FACS + sequencing; frameworks hold sequencing errors
Procedure, shortened: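 Polyreactivity labels are assigned by the sorting gate from which each nanobody was recovered. The gates were low and high (top ~1%), set on anti-HA fluorescence for expression and streptavidin fluorescence for reagent binding. Before sorting, galactose-induced (36–48 hours) yeast display cells were stained for 1 hour at 4 °C with 10% biotinylated, detergent-solubilized Sf9 membrane reagent.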

Sequence	polyreactivity (PSR sort gate)
QVQLVESGGGLVQAGGSLRLSCAASGRTFGENAMGWYRQAPGKERELVAAITGGDSTNYADSVKGRFTISRDNAKNTVYLQMNSLKPEDTAVYYCAAYGVKVLWTLTTYDYWGQGTQVTVSS	low polyreactivity
QVQLVESGGGLVQAGGSLRLSCAASGRTFGFNVMGWYRQAPGKERELVAAISWSGGSTYYADSVKGRFTISRENAKNTVYLQMNSLKPEDTAVYSCNKRYVHRYGYWGQGTQVTVTS	low polyreactivity
QVQLVESGGGLVQAGGSLRLSCAASGRTFGFYAMGWYRQAPGKERELVATISSSGGSTYYADSVKGRFTISRDNAKNTVYLQMNSLKPEDTAVYYCAKVVSGWRSHYIGDYWGQGTQVTVSS	low polyreactivity
QVQLVESGGGLVQAGGSLRLSCAASGRTFGFYGMGWYRQAPGKEREFVAAITRRGGSTYYADSVKGRFTISRDNAKNTVYLQMNSLNPEDTAVYYCNAARGAYYRWWGFGSDYWGQGTQVTVSS	high polyreactivity
QVQLVESGGGLVQAGGSLRLSCAASGRTFGFYTMGWYRPAPGKERELVAAITSRGGITTYADSVKGRFTISRDNAKNTVYLQLNSLIPEDTAVYYCAASLRAPSLGHYYYWGQGTQVTVSS	high polyreactivity
QVQLVESGGGLVQAGGSLRLSCAASGRTFGGNAMGWYRQAPGKERELVASITKRSGSTYYADSVKGRFTISRDNAKNTVYLQMNSLKPEDTAVYYCNTKPSYYFFANTYYGYNDDYWGQGTQVTVSS	high polyreactivity
QVQLVESGGGLVQAGGSLRLSCAASGRTFGGNAMGWYRQAPGKERELVAVIRSTGGSTYYADSVKGRFTISRDNAKNTVYLQMNSLKPEDTAVYYCAKGRGRNFGYWGQGTQVTVSS	high polyreactivity
QVQLVESGGGLVQAGGSLRLSCAASGRTFGGNSMGWYRQAPGKERELVAAISGSGGSTYYADSVKGRFTISRDNAKNTVYLQMNSLKPEDTAVYYCAKASRKGWRYDSWGQGTQVTVSS	high polyreactivity
QVQLVESGGGLVQAGGSLRLSCAASGRTFGGNTMGWSRQAPGKERELVAAISSGGSTYYADSVKGRFTISRDNAKNTVYLQMNSLKPEDTAVYYCAKSDPVGYYWDDPVTFDYWGQGTQVTVSS	low polyreactivity
QVQLVESGGGLVQAGGSLRLSCAASGRTFGGYAMGWYRQAPGKERELVAAISKRSGSTYYADSVKGRFTISRDNAKNTVYLQMNSLKPEDTAVYYCNKVWFQRSVQPVEYDYWGQGTQVTVSS	high polyreactivity
QVQLVESGGGLVQAGGSLRLSCAASGRTFGGYAMGWYRQAPGKERELVAAISKSGGSTYYAVSVKGRFTISRDTAKNTVYLQMNSLKPEDTAVYYCAAQGSSYSTRVWRRYYYWGQGTQVTVSS	high polyreactivity
QVQLVESGGGLVQAGGSLRLSCAASGRTFGGYAMGWYRQAPGKESELVARISRSGGSTYYADSVKGRFTISRDNAKNTVYLQMNSLKPEDTAVYYCNTGLRNAYGWPQDDYWGQGTQVTVSS	low polyreactivity
QVQLVESGGGLVQAGGSLRLSCAASGRTFGIYAMGWYRQAPGKERELVAAITWSGDSTYYADSVKGRFTISRDNAKNTVYLQMNSLKPEDTAVYYCAADYVGVTSVRYDYWGQGTQVTVSS	low polyreactivity
QVQLVESGGGLVQAGGSLRLSCAASGRTFGIYAMGWYRQAPGKERELVATISWRGGSTYYADSVKGRFTISRDNAKNTVYLQMNSLKPEDTAVYYCAAGYYPYWGQGTQVTVSS	low polyreactivity
QVQLVESGGGLVQAGGSLRLSCAASGRTFGIYVMGWYRQAPGKEMEWVAAIRGGGTTYYADSVKGRFTISRENAKNTVYLQMNSLKPEDTAVYYCAAVVKWWGQSRYDYWGQGTQVTVSS	high polyreactivity
QVQLVESGGGLVQAGGSLRLSCAASGRTFGKYAMGSYTQAPGKETELVAAISSSGGSTYYADSVKGRFTISRDNAKNTVYLQMNSVKPEDTAVYYCGARWSYRDDYWGQGTQVTVSS	high polyreactivity
QVQLVESGGGLVQAGGSLRLSCAASGRTFGKYAMGWDRQAPGKEMELVAAISTDVGDTYYADSVKGRFTISRDNAKNTVYLQMNSLKPEDTAVYYCAASFVYYGVDFVSWFWEGDYWGQGTQVTVSS	low polyreactivity
QVQLVESGGGLVQAGGSLRLSCAASGRTFGKYAMGWYRQAPGKERELVASITFSSGSTYYADSVKGRFTISRDNAKNTVYLQMNSLKPEDTAVYYCAKRGWGIYDYWGQGTQVTVSS	low polyreactivity
QVQLVESGGGLVQAGGSLRLSCAASGRTFGKYAMGWYRQAPGKERELVATISLSGGSTYYADSVKGRFTISRDNAKNTVYLQMNSLKPEDTAVYYCAARRKFDYWGQGTQVTVSS	high polyreactivity
QVQLVESGGGLVQAGGSLRLSCAASGRTFGKYAMGWYTQAPGKEREFVAAISWSGATTRYADSVKGRFTISRDNAKNTVYLQMNSLKPEDTAVYYCAATYYYVYGYRGDYWGQGTQVTVSS	high polyreactivity

Sequence	polyreactivity (PSR sort gate)
QVQLVESGGGLVQAGGSLRLSCAASGRTFGKYTMGWYRQAPGKERELVAAINRRGGSTYYADSVKGRFTISRDNAKNTVYLQMNSLKPEDTAVYYCAKDGYSIDRYYWGQGTQVTVSS	high polyreactivity
QVQLVESGGGLVQAGGSLRLSCAASGRTFGLYAMGWYRQAPGKERELVAAIDQSTGSTYYADSVKGRFTISRDHAKNTVYLQMNSLKPEDTAVYYCAAEEASTVRYYWYDYWGQGTQVTVSS	high polyreactivity
QVQLVESGGGLVQAGGSLRLSCAASGRTFGLYAMGWYRQAPGKERELVAAISWGGGRTYYADSVKGRFTISRDNAKNTVYLLMNSLKPEDTAVYYCNALYATYYLGYDYWGQGTQVTVSS	high polyreactivity
QVQLVESGGGLVQAGGSLRLSCAASGRTFGLYAMGWYRQAPGKERELVATISVSSGSTYYADSVKGRFTISRDNAKYTVYLQMNSLKPEDTAVYYCNVRYKRNRWQYDYWGQGTQVTVSS	high polyreactivity
QVQLVESGGGLVQAGGSLRLSCAASGRTFGLYDMGWYRQAPGKERELVAGITRRGGCTYYADSVKGRFTISRDNAKNTVYLQMYSLKPEDTAVYYCAAGTIYLRHAQSPFDYWGQGTQVTVSS	high polyreactivity
QVQLVESGGGLVQAGGSLRLSCAASGRTFGPNVIGWYRQAPGKERELVAAITSGGTTYYADSVKGRFTISRDNAKNTVYLQMNSLKPEDTAVYYCNARYVYHSSFAGFDYWGQGTQVTVSS	low polyreactivity
QVQLVESGGGLVQAGGSLRLSCAASGRTFGPYAMGWYRQAPGKEREFVAAISYSGGSTYYADSVKGRFTISRDNAKNTVYLQMNSLKPEDTAVYYCAVDIDSNSGTRDYWGQGTQVTVSS	low polyreactivity
QVQLVESGGGLVQAGGSLRLSCAASGRTFGQYAMGWYRQAPGKERELVAAITGGGSTNYADSVKGRFTISRDNAKNTVYLHMNSLKPEDTAVYYCAAKARSYWYPRLYIYEGDYWGQGTQVTVSS	low polyreactivity
QVQLVESGGGLVQAGGSLRLSCAASGRTFGQYAMGWYRQAPGKERELVAAITTRGGSTYYADSVKGRFTISRDNAKNTVYLQMNSLKPEDTAVYYCIADYPVKRRRGRDYWGQGTQVTVSS	high polyreactivity
QVQLVESGGGLVQAGGSLRLSCAASGRTFGQYVMGWYRQAPGKERELVAAISSGDSTNYADSVKGRFTISRDNAKNTVYFQMNSLKPEDTAVYYCAAVYWVLWQGSTYGYWGQGTQVTVSS	low polyreactivity
QVQLVESGGGLVQAGGSLRLSCAASGRTFGRNAMGWYRQAPGERELVAVISRRGSTYYADSVKGRFTISRDNAKNTVYLQMNSLKPEETAVDYCAAYYYIGGKYGSQVYEYDYWGQGTQVTVSS	low polyreactivity
QVQLVESGGGLVQAGGSLRLSCAASGRTFGRNAMGWYRQAPGKERELVAAITWSGGRTYYADSVKGRFSISRDNAKNTVYLQMNSLKPEDTAVYYCARGSSSISIFYRYDYWGQGTQVTVSS	high polyreactivity
QVQLVESGGGLVQAGGSLRLSCAASGRTFGRYAKGWSRQAPGKERELVAAISYSTDSTYYADSVKGRFTISRDNAKNTDYLQMNSLKPEYTAVYYCATDSVNVGSYVGDKHDYWGHGTQVTVSS	low polyreactivity
QVQLVESGGGLVQAGGSLRLSCAASGRTFGRYAMGWYRQAPGKERELVAAISTSGGSTYYADSVKGRFTISRDNAKNTVYLQMNSLKPEDTAVYYCAATIGRRSYNQMYYWGQGTQVTVSS	high polyreactivity
QVQLVESGGGLVQAGGSLRLSCAASGRTFGRYAMGWYRQAPGKERELVAAISYSTDSTYYADSVKGRFTISRDNAKNTVYLQMNSLKPEDTAVYYCAADRLRTSGYKTIYDYWGQGTQVTVSS	low polyreactivity
QVQLVESGGGLVQAGGSLRLSCAASGRTFGRYAMGWYRQAPGKERELVAAITRSGGSTNYADSVKGRFTISRDNAKNTVYLQMNSLKPEDTAVYYCARRGYSVRTPEGYYWGQGTQVTVSS	high polyreactivity
QVQLVESGGGLVQAGGSLRLSCAASGRTFGRYAMGWYRQAPGKERELVAGISGSVGITYYADSVKGRFTISRDNAKNTVYLQMNSLKPEDTAVYYCAVVARAGHKYDYWGQGTQVTVSS	low polyreactivity
QVQLVESGGGLVQAGGSLRLSCAASGRTFGRYAMGWYRQAPGKERELVARIRTSGGRTYYADSVKGRFTISRDNAKYTVYLQMNSLKPEDTAVYYCATTSQPWYYWSTQGDDYWGQGTQVTVSS	low polyreactivity
QVQLVESGGGLVQAGGSLRLSCAASGRTFGRYAMGWYRQAPGKERELVARISFTGGSTYADSVKGRFTISRDNAKNTVYLQMNSLKPEDTAVYYCNVPYYINHKFYDSPFVQRYDYWGQGTQVTVSS	low polyreactivity
QVQLVESGGGLVQAGGSLRLSCAASGRTFGRYAMVWYRQAPGKEREFVASISRRGGTTYYADSVKGRFTISRDNAKNSVYLQMNSLKPEDTAVYYCNADRTVIYDYEYWGQGTQVTVSS	low polyreactivity
